Assay [1] concerns Wnt signaling. The assay is described as follows: Local application into CA3 in mice housed under control conditions. The assay is classed as in vivo. An excerpt: (§1) For enriched environment (EE) experiments, male mice were housed in groups of 3-4 littermates in large (rat) cages equipped with 3 running wheels per cage, toys and hiding spaces. Control mice were male littermates (3-4), which were housed individually in small standard cages without special equipment. Unless stated otherwise, EE was started at 1 month of age, and lasted 20 days.
Mature recombinant sFRP-1 was obtained from R&D systems and dissolved in PBS/0.1% BSA (vehicle: PBS/0.1% BSA) to a working concentration of 50 μg/ml. Wnt agonist (Calbiochem) was dissolved in a small volume of DMSO and then further diluted with PBS to a final concentration of 10 mM (DMSO<1:1000). PBS/DMSO solution alone was used as vehicle for control injections. Antibodies were from the following sources: Bassoon, anti-mouse Alexa Fluor 546 and 647, anti-goat Alexa Fluor 546 and 633, donkey anti-goat Alexa Fluor 568 (Molecular Probes); NeuN anti-mouse (CHEMICON); anti-human Wnt7a/b antibody (R&D, P56706). […] Reagents, with their working concentrations were: TTX (Laxotan, 1 μM, stock in acetate buffer), Bicuculine (SIGMA, 20 μM in water), CGP (SIGMA, 0.4 μM in water), Picrotoxin (SIGMA, 20 μM in water).
Injection canulas were implanted unilaterally (left hemisphere) above the CA3 b-a region of Isofluorane-anesthetized mice using stereotactical guidance. Canulas were fixed with dental cement. Implantation coordinates from Bregma (implantation 0.5 mm above injection site as the needle surpassed canula by 0.5 mm): ante-posterior −2.06 mm, lateral 2.5 mm, dorso-ventral −1.4 mm. Animals were allowed to recover for 3 days after surgery before drug treatments started.
(§2) Animals were injected under Isofluorane anesthesia with 300 nl of either drug (treated) or vehicle (control) through a small needle guided through the implanted canulas every 3-4 days for 12-21 days (depending on experiment). Canula positions were confirmed in all analyzed sections to be above Ca3b-a without harming the mossy fiber projection or CA3 pyramidal cell dendrites.
(§3) Microscope images were processed and analysed using Metamorph 6.1, Imaris 4.2 (Bitplane AG) and ImageJ softwares. We defined LMTs as mossy fiber terminal regions of >2.5 μm diameter in CA3a-c, which were arranged either en-passant, or as side structures connected to the mossy fiber axon or another LMT by an axonal process (satellite). For the quantification of LMT sizes in 3D (volumes) at least three confocal 3D stacks were acquired in CA3b for each preparation (three mice per condition), and analyzed using Imaris 4.2 software.
Individual LMT volumes contained in these cubes were measured using the Surpass/ Isosurface function of the software. Non-saturating imaging conditions were chosen for all size analyses. An intensity threshold of 300 was chosen to selectively analyze LMTs (excluding axons and other smaller objects). All identified objects were verified by eye inspection. Generally, the settings for the analysis were identical for all samples of all ages, but in some cases we verified the settings through internal calibration using the diameters and signal intensities of axons. After these measurements, LMTs were grouped according to their volumes. The volumes of all LMTs in one group were added up, and expressed as percentage of the total volume of all LMTs measured per cube. For the quantification of LMT sizes in 2D, MIPs of 3D stacks were created in ImageJ, and LMT surfaces (areas in μm^2) were measured. For all samples, LMTs were inspected by eye in 3D to be identified as individual LMTs and not fused with other LMTs. LMT numbers were determined in CA3b as follows: the sum of all mGFP-positive LMTs within a region of interest (ROI; a MIP) was divided by the number of mGFP-labeled axons within that ROI, and by the length along CA3 included in the ROI. LMT numbers were then normalized to 100 μm axon length. Wnt7a/b staining intensities were measured on single confocal planes. […]

In assay [2] the test system is Wnt signaling. The assay is described as follows: Application to organotypic slice cultures. The assay is classed as cell-based. The following applies: organotypic slice cultures (not shown).
Excerpt: Organotypic slice cultures were based on the Stoppini method (Stoppini et al., 1991), as described (De Paola et al., 2003).
Immunocytochemistry preparations were imaged on an LSM510 confocal microscope (Zeiss) using a 40× (1.4) oil-immersion objective. Imaging of organotypic slice cultures was as described. Briefly, images were acquired with an LSM 510 (Zeiss), using a 40× (1.4) oil objective (Zeiss); image sizes were 2048×2048, and stepsizes were 0.4 μm. Where indicated, drugs were replaced every 3-4 days, together with fresh medium.
as §3

Assay [3] relates to Wnt signaling. The assay is described as follows: sFRP-1 applied locally into hippocampal CA3 through a canule in mice housed under enriched environment (EE) conditions. The assay is classed as in vivo. Particulars: sFRP-1 present in CA3 during entire EE procedure, vs vehicle; no effect in dentate gyrus.
Excerpt: as §1
Mature recombinant sFRP-1 was obtained from R&D systems and dissolved in PBS/0.1% BSA (vehicle: PBS/0.1% BSA) to a working concentration of 50 μg/ml. Wnt agonist (Calbiochem) was dissolved in a small volume of DMSO and then further diluted with PBS to a final concentration of 10 mM (DMSO<1:1000). […]
as §2
(§4) Microscope images were processed and analysed using Metamorph 6.1, Imaris 4.2 (Bitplane AG) and ImageJ softwares. […] For the quantification of LMT sizes in 3D (volumes) at least three confocal 3D stacks were acquired in CA3b for each preparation (three mice per condition), and analyzed using Imaris 4.2 software. […]

The subject of assay [4] is Wnt signaling. The assay is described as follows: sFRP-1 applied in Rab3a-/- mice housed under EE conditions. The assay is classed as in vivo.
Excerpt: Transgenic mice expressing membrane-targeted GFP in only a few neurons (Thy1-mGFPs, L21 and L15) were as described (De Paola et al., 2003). Transgenic males were crossed over more than ten generations with non-transgenic F1 offsprings from C57BI6×BalbC crosses, so that the genetic background of the mice was 50% each of C57BI6 and BalbC. Rab3a knockout mice (B6; 129S-Rab3a^tm1Sud/J) were obtained from the Jackson Laboratory and backcrossed into Thy1-mGFP (L21) mice.
For enriched environment (EE) experiments, male mice were housed in groups of 3-4 littermates in large (rat) cages equipped with 3 running wheels per cage, toys and hiding spaces. […]
as §2, §4

The mark [5] stands for this setting: local into CA3, control housing.

Take `COc1cccc(-c2cnc(N)nc2NCc2ccc3c(c2)OCO3)c1` [Wnt agonist, 2-amino-4-[3,4-(methylenedioxy)benzyl-amino]-5-(3-methoxyphenyl)pyrimidine, reference compound]: in assay [1] (setting [5]), the “AZ densities at LMTs” value is reported as “increased”, the “stratum lucidum AZ numbers” value is recorded as “increased” and the “stratum lucidum LMT numbers” value is “increased”. Further, the LMT satellite numbers entry in assay [2] was “increases”.

B1: sFRP-1: Mature recombinant secreted frizzled-related protein 1 from R&D systems, used as local inhibitor of Wnt signaling (protein, UniProt Q8N474 32-314, looked up)
Secreted frizzled-related …: SEYDYVSFQSDIGPYQSGRFYTKPPQCVDIPADLRLCHNVGYKKMVLPNLLEHETMAEVKQQASSWVPLLNKNCHAGTQVFLCSLFAPVCLDRPIYPCRWLCEAVRDSCEPVMQFFGFYWPEMLKCDKFPEGDVCIAMTPPNATEASKPQGTTVCPPCDNELKSEAIIEHLCASEFALRMKIKEVKKENGDKKIVPKKKKPLKLGPIKKKDLKKLVLYLKNGADCPCHQLDNLSHHFLIMGRKVKSQYLLTAIHKWDKKNKEFKNFMKKMKNHECPTFQSVFK
In the case of B1, in assay [3], the “effect of the enriched housing conditions on AZ numbers” value was “effectively suppresses the effect of the enriched housing conditions” and the “effect of the enriched housing conditions on satellite numbers” value was “effectively suppresses the effect of the enriched housing conditions”. Further, in assay [4], the “effect of EE on LMT complexities” value is given as “effectively suppressed the effect of EE” and the “effect of EE on LMT numbers” value was “effectively suppressed the effect of EE”. In assay [1] (setting [5]), the “contents of AZs per LMT” value is on record as “reduction” and the “stratum lucidum AZ numbers” value is listed as “reduction”. Further, the “fractions of LMTs with satellites” value in assay [1] (local into CA3, control housing (not shown)) was “reduction”.

Source of the values: patent US20110243959A1, “MODULATING NEURONAL PLASTICITY AND TREATMENT OF NEURONAL LOSS BY MODULATIONG WNT7A OR WNT7B MODULATION” (priority 2008, published 2011).
